# Laboratory results published in article PMC5333157 (2017).
# B1: ERK4 (wild-type), GAL4 activation domain fusion [not stated] / DUSP2 (wild-type), GAL4 DNA-binding domain fusion [human] (parent complex)
# chain 1: MAEKGDCIASVYGYDLGGRFVDFQPLGFGVNGLVLSAVDSRACRKVAVKKIALSDARSMKHALREIKIIRRLDHDNIVKVYEVLGPKGTDLQGELFKFSVAYIVQEYMETDLARLLEQGTLAEEHAKLFMYQLLRGLKYIHSANVLHRDLKPANIFISTEDLVLKIGDFGLARIVDQHYSHKGYLSEGLVTKWYRSPRLLLSPNNYTKAIDMWAAGCILAEMLTGRMLFAGAHELEQMQLILETIPVIREEDKDELLRVMPSFVSSTWEVKRPLRKLLPEVNSEAIDFLEKILTFNPMDRLTAEMGLQHPYMSPYSCPEDEPTSQHPFRIEDEIDDIVLMAANQSQLSNWDTCSSRYPVSLSSDLEWRPDRCQDASEVQRDPRAGSAPLAEDVQVDPRKDSHSSSERFLEQSHSSMERAFEADYGRSCDYKVGSPSYLDKLLWRDNKPHHYSEPKLILDLSHWKQAAGAPPTATGLADTGAREDEPASLFLEIAQWVKSTQGGPEHASPPADDPERRLSASPPGRPAPVDGGASPQFDLDVFISRALKLCTKPEDLPDNKLGDLNGACIPEHPGDLVQTEAFSKERW
# chain 2: MGLEAARELECAALGTLLRDPREAERTLLLDCRPFLAFCRRHVRAARPVPWNALLRRRARGPPAAVLACLLPDRALRTRLVRGELARAVVLDEGSASVAELRPDSPAHVLLAALLHETRAGPTAVYFLRGGFDGFQGCCPDLCSEAPAPALPPTGDKTSRSDSRAPVYDQGGPVEILPYLFLGSCSHSSDLQGLQACGITAVLNVSASCPNHFEGLFRYKSIPVEDNQMVEISAWFQEAIGFIDWVKNSGGRVLVHCQAGISRSATICLAYLMQSRRVRLDEAFDFVKQRRGVISPNFSFMGQLLQFETQVLCH
# Variants of: B1
# Assay: yeast two-hybrid, β-galactosidase reporter assay; triplicate; read off a plot
row,response,Variant
1,~16,chain 1 D320N
